Data on five molecules can be found in patent US20230212319A1, “NOVEL ANTIGEN BINDING DOMAINS AND SYNTHETIC ANTIGEN RECEPTORS INCORPORATING THE SAME” (University of Southern California, priority 2020, published 2023).

The experiment has as its system RAJI cells. Put plainly: JNG assay, co-culture with RAJI cells. Format: cell-based. To be noted: for NFAT-GFP ASSAY: Raji: JNG cells expressing construct, co-culture with Raji. The method, then:
Cellular supernatant is collected and assayed for the induction of cytokines (e.g., IL2).
JNG (Jurkat cells expressing EGFP under an NFAT promoter) were infected with lentiviral vectors encoding different single chain and multi-chain SARs by spinfection in the presence of 8 µg/ml of Polybrene® (Sigma, Catalog no. H9268). The Jurkat-NFAT-GFP cells are engineered in such a way that the IL-2 promoter, which carries NFAT binding sites, is cloned upstream of the GFP gene. These cells have been used to study signaling via TCR and CAR. The different SARs were stably expressed in Jurkat NFAT-GFP cells by lentiviral mediated gene transfer, followed by selection with puromycin or blasticidin. No drug selection was used in case the construct lacked an antibiotic resistance gene. The SAR-expressing Jurkat-NFAT-GFP cells were cocultured with the target cells at E:T ratio of approximately 1:2 for approximately 4 hours to 18 hours. When the interaction between SIRs and their target antigen results in activation of the NFAT pathway, GFP expression is induced. […] GFP expression was monitored by FACS analysis. The Jurkat-NFAT-GFP (parental) cells were used as control. The structure of different constructs can be determined based on their names. […] The sequence of the other constructs in the table can be similarly determined from their names and by referring to the different Tables of this disclosure that provide the names and SEQ ID NO of the different modules. Alternatively, the composition and modular architecture of the different SAR constructs can be determined from their sequences by bioinformatics tools, including using nucleic acid and amino acids homology searches. A SAR is considered positive in the assay in case the SAR expressing Jurkat-NFAT-GFP cells show greater % GFP positive cells when cultured with the target cell line as compared to parental Jurkat-NFAT-GFP cells. […] In general, the number +/-, +, 2+, 3+, 4+, 5+ refer to approximately 5%, 10%, 20%, 30%, 40% and 50% GFP positive cells. The % of GFP induction in the above assay is dependent not only the relative strength of the SAR but also, among other factors, on the relative level of expression of the SAR in the JNG cells and the relative level of expression of the target antigen in the target cell line. To control for the difference in gene transduction efficiency of the different SAR constructs, the experiment was conducted with JNG cells transduced with SAR constructs co-expressing a drug resistance gene (e.g., puromycin or PAC) followed by drug selection to generate a stable population of SAR-expressing cells. It is to be noted that the drug resistance gene (e.g., PAC) in the SAR constructs is optional and in vivo studies were conducted with SAR constructs lacking the PAC gene.

B1: 22085 (protein)
chain: MALPVTALLLPLALLLHAARPQLQLQESGPGLVKPSETLSLTCTVSGDSISSGDYYWGWIRQPPGKGLEWIGHIYYSGVTYYNPSLKSRVTISVDTSRNQFSLKLSSVTAADTAVYYCTREDSSNWRSRGQGTLVTVSSLEGSGGGGSGGGGSGEDLKNVFPPEVAVFEPSEAEISHTQKATLVCLATGFYPDHVELSWWVNGKEVHSGVCTDPQPLKEQPALNDSRYCLSSRLRVSATFWQNPRNHFRCQVQFYGLSENDEWTQDRAKPVTQIVSAEAWGRADCGFTSESYQQGVLSATILYEILLGKATLYAVLVSALVLMAMVKRKDSRGRAKRSGSGATNFSLLKQAGDVEENPGPTSMDWIWRILFLVGAATGAHSFEVQLLESGGGLIQPGGSLRLSCAASGFTFSSHAMTWVRQAPGKGLEWVSAISGSGDYTHYADSVKGRFTISRDNSKNTVYLQMNSLRAEDSAVYYCAKDEDGGSLLGHRGQGTLVTVSSTRGSIPEDTFFPSPESSCDVKLVEKSFETDTNLNFQNLSVIGFRILLLKVAGFNLLMTLRLWSS
As to B1, the “NFAT-GFP ASSAY: Raji” value is “+/- (refer to approximately 5%, 10%, 20%, 30%, 40% and 50% GFP positive cells)”.

B2: 21993 (protein)
chain: MALPVTALLLPLALLLHAARPQLQLQESGPGLVKPSETLSLTCTVSGDSISSGDYYWGWIRQPPGKGLEWIGHIYYSGVTYYNPSLKSRVTISVDTSRNQFSLKLSSVTAADTAVYYCTREDSSNWRSRGQGTLVTVSSLEDLKNVFPPEVAVFEPSEAEISHTQKATLVCLATGFYPDHVELSWWVNGKEVHSGVCTDPQPLKEQPALNDSRYCLSSRLRVSATFWQNPRNHFRCQVQFYGLSENDEWTQDRAKPVTQIVSAEAWGRADCGFTSESYQQGVLSATILYEILLGKATLYAVLVSALVLMAMVKRKDSRGRAKRSGSGATNFSLLKQAGDVEENPGPTSMDWIWRILFLVGAATGAHSFEQLQLQESGPGLVKPSETLSLTCTVSGGSISSGDYYWGWIRQPPGKGLEWIGHIYYSGATYYNPSLKSRVTISVDTSRNQFSLKLSSVTAADTAVYYCTRDDSSNWRSRGQGTLVTVSSTRIQNPDPAVYQLRDSKSSDKSVCLFTDFDSQTNVSQSKDSDVYITDKCVLDMRSMDFKSNSAVAWSNKSDFACANAFNNSIIPEDTFFPSPESSCDVKLVEKSFETDTNLNFQNLSVIGFRILLLKVAGFNLLMTLRLWSSRAKRSGSGVKQTLNFDLLKLAGDVESNPGPSRGHMTEYKPTVRLATRDDVPRAVRTLAAAFADYPATRHTVDPDRHIERVTELQELFLTRVGLDIGKVWVADDGAAVAVWTTPESVEAGAVFAEIGPRMAELSGSRLAAQQQMEGLLAPHRPKEPAWFLATVGVSPDHQGKGLGSAVVLPGVEAAERAGVPAFLETSAPRNLPFYERLGFTVTADVEVPEGPRTWCMTRKPGA
Consider B2, for which the “NFAT-GFP ASSAY: Raji” value was “Raji (+/-) (refer to approximately 5%, 10%, 20%, 30%, 40% and 50% GFP positive cells)”.

B3: 21995 (protein)
chain: MALPVTALLLPLALLLHAARPQLQLQESGPGLVKPSETLSLTCTVSGDSISSGDYYWGWIRQPPGKGLEWIGHIYYSGVTYYNPSLKSRVTISVDTSRNQFSLKLSSVTAADTAVYYCTREDSSNWRSRGQGTLVTVSSLEDLKNVFPPEVAVFEPSEAEISHTQKATLVCLATGFYPDHVELSWWVNGKEVHSGVCTDPQPLKEQPALNDSRYCLSSRLRVSATFWQNPRNHFRCQVQFYGLSENDEWTQDRAKPVTQIVSAEAWGRADCGFTSESYQQGVLSATILYEILLGKATLYAVLVSALVLMAMVKRKDSRGRAKRSGSGATNFSLLKQAGDVEENPGPTSMDWIWRILFLVGAATGAHSFEVQLLESGGGLVQPGGSLRLSCAASGFIFSIYAMSWVRQAPGKGLEWVSGISGSGVNTYYADSVKGRFIISRDNSRNTVYLQMNSLRADDTAVYHCANGKGWDGNTWYEDYRGQGTLVTVSSTRIQNPDPAVYQLRDSKSSDKSVCLFTDFDSQTNVSQSKDSDVYITDKCVLDMRSMDFKSNSAVAWSNKSDFACANAFNNSIIPEDTFFPSPESSCDVKLVEKSFETDTNLNFQNLSVIGFRILLLKVAGFNLLMTLRLWSSRAKRSGSGVKQTLNFDLLKLAGDVESNPGPSRGHMTEYKPTVRLATRDDVPRAVRTLAAAFADYPATRHTVDPDRHIERVTELQELFLTRVGLDIGKVWVADDGAAVAVWTTPESVEAGAVFAEIGPRMAELSGSRLAAQQQMEGLLAPHRPKEPAWFLATVGVSPDHQGKGLGSAVVLPGVEAAERAGVPAFLETSAPRNLPFYERLGFTVTADVEVPEGPRTWCMTRKPGA
Turning to B3, the “NFAT-GFP ASSAY: Raji” value was “+ (refer to approximately 5%, 10%, 20%, 30%, 40% and 50% GFP positive cells)”.

B4: 22084 (protein)
chain: MALPVTALLLPLALLLHAARPQLQLQESGPGLVKPSETLSLTCTVSGDSISSGDYYWGWIRQPPGKGLEWIGHIYYSGVTYYNPSLKSRVTISVDTSRNQFSLKLSSVTAADTAVYYCTREDSSNWRSRGQGTLVTVSSLDSGGGGSFEQLQLQESGPGLVKPSETLSLTCTVSGGSISSGDYYWGWIRQPPGKGLEWIGHIYYSGATYYNPSLKSRVTISVDTSRNQFSLKLSSVTAADTAVYYCTRDDSSNWRSRGQGTLVTVSSTRDKTHTCPPCPAIPEDTFFPSPESSCDVKLVEKSFETDTNLNFQNLSVIGFRILLLKVAGFNLLMTLRLWSS
As for B4, the “NFAT-GFP ASSAY: Raji” value was “+/- (refer to approximately 5%, 10%, 20%, 30%, 40% and 50% GFP positive cells)”.

B5: SEQ ID NO: 22254: bispecific SAR on CD19 targeted SIR backbone comprising the receptor binding domain of the ligand APRIL (protein)
chain: MALPVTALLLPLALLLHAARPACVLHLVPINATSKDDSDVTEVMWQPALRRGRGLQAQGYGVRIQDAGVYLLYSQVLFQDVTFTMGQVVSREGQGRQETLFRCIRSMPSHPDRAYNSCYSAGVFHLHQGDILSVIIPRARAKLNLSPHGTFLGFVKLGTGGGGSGGGGSGGGGSEFDIQMTQSPSSLSASVGDRVTITCKASDHINNWLAWYQQKPGQAPKLLIYGATTLETGVPSRFSGSGSGTDYTLTISSLQPEDFATYYCQQSWNTPWTFGQGTKLEIKRLEDLKNVFPPEVAVFEPSEAEISHTQKATLVCLATGFYPDHVELSWWVNGKEVHSGVCTDPQPLKEQPALNDSRYCLSSRLRVSATFWQNPRNHFRCQVQFYGLSENDEWTQDRAKPVTQIVSAEAWGRADCGFTSESYQQGVLSATILYEILLGKATLYAVLVSALVLMAMVKRKDSRGRAKRSGSGATNFSLLKQAGDVEENPGPTSATMDWIWRILFLVGAATGAHSGPEVQLVESGGGLVQAGGSLRLSCAASGRTFSMGWFRQAPGKEREFVAAITYSGGSPYYADSVKGRFTISRDNAKNTVYLQMNSLKPEDTAVYYCAANPTYGSDWNAENWGQGTQVTVSSGSGGGGSGGGGSGGGGSFEQVQLQQPGAELVKPGASVKMSCKASGYAFSSYWINWMKQKPGQGLEWIGQIYPGDGDTNYNGKFKGRATLTADTSSSTAYMQLSSLTSEDSAVYFCARSITTVVGCAMDYWGQGTSVTVSSTRIQNPDPAVYQLRDSKSSDKSVCLFTDFDSQTNVSQSKDSDVYITDKCVLDMRSMDFKSNSAVAWSNKSDFACANAFNNSIIPEDTFFPSPESSCDVKLVEKSFETDTNLNFQNLSVIGFRILLLKVAGFNLLMTLRLWSSRAKRSGSGVKQTLNFDLLKLAGDVESNPGPSRGHMTEYKPTVRLATRDDVPRAVRTLAAAFADYPATRHTVDPDRHIERVTELQELFLTRVGLDIGKVWVADDGAAVAVWTTPESVEAGAVFAEIGPRMAELSGSRLAAQQQMEGLLAPHRPKEPAWFLATVGVSPDHQGKGLGSAVVLPGVEAAERAGVPAFLETSAPRNLPFYERLGFTVTADVEVPEGPRTWCMTRKPGA
On to B5, for which the “GFP induction / activity” value (co-culture with RAJI cells) is given as “retained the ability to respond”.
